Test results from patent publication US20070160605A1 (RINAT NEUROSCIENCE, published 2007).
“And” between values parts separate entries of the source, which are not always exact repeats. Equal entries are not always repeated.

Biological target: T1, human NGF (human, UniProt P01138 122-241, limits assumed)
T1 construct: also called hNGF; human nerve growth factor
Assay: binding affinity, method not stated

T1 sequence (P01138 122-241 limits assumed): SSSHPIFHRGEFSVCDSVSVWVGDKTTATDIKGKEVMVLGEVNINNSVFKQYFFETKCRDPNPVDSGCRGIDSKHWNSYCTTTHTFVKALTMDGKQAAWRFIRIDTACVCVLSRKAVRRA

B1: humanized anti-NGF antibody E3 (antibody, V domains shown)
VH: QVQLQESGPGLVKPSETLSLTCTVSGFSLIGYDLNWIRQPPGKGLEWIGIIWGDGTTDYNSAVKSRVTISKDTSKNQFSLKLSSVTAADTAVYYCARGGYWYATSYYFDYWGQGTLVTVS
VL: DIQMTQSPSSLSASVGDRVTITCRASQSISNNLNWYQQKPGKAPKLLIYYTSRFHSGVPSRFSGSGSGTDFTFTISSLQPEDIATYYCQQEHTLPYTFGQGTKLEIK
B1 was tested, and the Kd was ~0.07 nM and ~0.1 nM.
